Values of other authors, collected in publication PMC3786701.

Molecular target: SNARE complex (Rattus norvegicus) (UniProt P32851)
Sequence of UniProt P32851 (P32851 whole entry, chain 1 of 3): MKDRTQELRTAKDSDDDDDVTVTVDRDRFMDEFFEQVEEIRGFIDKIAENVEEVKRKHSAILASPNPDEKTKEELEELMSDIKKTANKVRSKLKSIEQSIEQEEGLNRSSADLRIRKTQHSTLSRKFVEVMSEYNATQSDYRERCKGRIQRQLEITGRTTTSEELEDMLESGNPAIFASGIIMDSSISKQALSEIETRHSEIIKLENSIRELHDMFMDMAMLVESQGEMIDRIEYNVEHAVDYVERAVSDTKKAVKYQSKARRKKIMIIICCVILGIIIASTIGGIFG
Sequence of UniProt P32851 (B2RAU4 whole entry, chain 2 of 3, further chain): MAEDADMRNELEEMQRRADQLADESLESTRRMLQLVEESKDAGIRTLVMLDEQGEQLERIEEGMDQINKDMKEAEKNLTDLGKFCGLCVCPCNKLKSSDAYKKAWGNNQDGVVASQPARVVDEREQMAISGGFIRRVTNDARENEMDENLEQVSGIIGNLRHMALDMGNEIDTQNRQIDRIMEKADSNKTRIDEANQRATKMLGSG
Sequence of UniProt P32851 (P63044 2-116, chain 3 of 3, further chain): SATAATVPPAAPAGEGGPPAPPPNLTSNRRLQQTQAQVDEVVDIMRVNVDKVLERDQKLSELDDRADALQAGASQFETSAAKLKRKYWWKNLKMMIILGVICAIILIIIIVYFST

Kd: 1 µM
Substance: synaptotagmin-1 C2AB (from UniProt P21707)
